Literature values in paper PMC6699087.

Molecular target: Hsp90 (Homo sapiens) (UniProt P08238)
Chain of UniProt P08238 (P08238 2-724): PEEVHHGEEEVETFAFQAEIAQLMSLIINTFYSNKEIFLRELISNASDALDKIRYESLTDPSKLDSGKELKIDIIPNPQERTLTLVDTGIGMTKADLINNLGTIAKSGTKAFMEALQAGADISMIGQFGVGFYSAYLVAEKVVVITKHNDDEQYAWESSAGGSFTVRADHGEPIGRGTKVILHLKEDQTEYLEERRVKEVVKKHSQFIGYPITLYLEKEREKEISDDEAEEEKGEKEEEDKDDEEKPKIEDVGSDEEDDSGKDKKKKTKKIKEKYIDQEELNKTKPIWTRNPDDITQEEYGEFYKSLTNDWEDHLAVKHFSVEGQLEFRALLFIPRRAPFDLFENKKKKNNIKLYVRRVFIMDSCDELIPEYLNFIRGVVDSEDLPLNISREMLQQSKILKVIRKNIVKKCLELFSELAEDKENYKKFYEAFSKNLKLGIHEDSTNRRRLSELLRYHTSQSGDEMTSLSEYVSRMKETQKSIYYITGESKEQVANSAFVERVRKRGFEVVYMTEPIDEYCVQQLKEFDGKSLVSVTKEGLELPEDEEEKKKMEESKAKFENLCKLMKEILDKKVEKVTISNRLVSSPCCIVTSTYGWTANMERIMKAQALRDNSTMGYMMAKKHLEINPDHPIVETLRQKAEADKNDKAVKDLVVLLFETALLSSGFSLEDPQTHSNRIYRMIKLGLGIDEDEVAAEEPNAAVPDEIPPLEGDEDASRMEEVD

- Kd: 500 nM
Substance: Aha1 (from UniProt O95433)
